Test results as given in paper PMC13364712, “Evolutionarily conserved short linear motifs drive actin filament binding” (Nature Cell Biology, 2026).

Biological target: actin filaments (actin from Gallus gallus skeletal muscle) (Gallus gallus (chicken), UniProt P68139 1-377)
Experiment: co-sedimentation; 4 µM EGFP–SFM peptide with 0–200 µM actin filaments in F buffer, 1 h at room temperature, 100,000g for 30 min; pellet read by anti-EGFP western blot; one-site specific binding fit; apparent
Conditions: both partners purified

B1: EGFP-tagged ESPNL SFM peptide (peptide)
chain: IQEWGVSVRTLRGNFESASGPLC
modifications: Limits from translated primers P11/P12 (7 residues either side of SFM 652-660). Construct also has an initiator Met before the peptide and a C-terminal linker-EGFP-TEV-His, left out.
B1 showed a Kd of 6 µM.
